Numbering of substitutions follows the chain as printed.
Legend:
huCLL1-K244-Avi-Tev-His = molecular target: T1, huCLL1-K244-Avi-Tev-His (human, UniProt Q5QGZ9 65-265); test: BLI
T1 construct: extracellular domain
T1 sequence (looked up): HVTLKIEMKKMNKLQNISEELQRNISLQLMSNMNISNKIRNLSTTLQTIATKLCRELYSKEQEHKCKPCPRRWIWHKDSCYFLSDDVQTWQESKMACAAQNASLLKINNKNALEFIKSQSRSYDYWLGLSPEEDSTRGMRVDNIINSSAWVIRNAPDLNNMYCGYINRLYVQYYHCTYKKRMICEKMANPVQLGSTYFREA

huCLL1-Q244-Avi-Tev-His = molecular target: T2, huCLL1-Q244-Avi-Tev-His (human, UniProt Q5QGZ9 65-265); test: BLI
T2 construct: extracellular domain; also called CLL-1 K244Q
T2 sequence (looked up): T1 sequence (looked up) with K180Q

B1: Polypeptide No. 146 (scFv, V domains shown)
VH: QVQLVQSGAEVKKPGASVKVSCKASGYTFSGHYMHWVRQAPGQGLEWMGWIDPNSGGTNYAQKFQGRVTMTRDTSTSTVYMELSSLRSEDTAVYYCARDYPFYGDNDAFDIWGQGTTVTVSS
VL: DIQMTQSPSSLSASVGDRVTITCRVSQGISSYLNWYQQKPGKAPKLLIYEASSLESGVPSRFSGSGSGTDFTLTISSLQPEDFATYYCQQSYSIPFTFGPGTKVDIKR
notes: scFv
B1: binds (huCLL1-K244-Avi-Tev-His); binds (huCLL1-Q244-Avi-Tev-His).

B2: Polypeptide No. 147 (scFv, V domains shown)
VH: QVQLVQSGAEVKKPGASVKVSCKASGYTFTSYHIHWVRQAPGQGLEWVGGIIPSGGSTSYAQKFQGRVTMTRDTSTSTVYMELSSLRSEDTAVYYCARGTNDDHYDYWGQGTLVTVSS
VL: B1 VL with V25A, S31N, N34A, E50D, S53N, S56T, I94T, F96L, P100G, D105E
notes: scFv
B2: binds (huCLL1-K244-Avi-Tev-His); binds (huCLL1-Q244-Avi-Tev-His).

B3: Polypeptide No. 148 (scFv, V domains shown)
VH: QVQLVQSGAEVKKPGASVKVSCKASGGTFTTYGISWVRQAPGQGLEWMGWMNPFSDNTDYAQNFQGRVTMTRDTSTSTVYMELSSLRSEDTAVYYCARGTGDDAFDIWGQGTMVTVSS
VL: DIQMTQSPSSLSASVGDRVTITCRASQSISTWVAWYQQKPGKAPKLLIYAASSLQSGVPSRFSGSGSGTDFTLTISSLQPEDFATYYCQQSFSIPLTFGQGTKVEIKR
notes: scFv
B3: binds (huCLL1-K244-Avi-Tev-His); binds (huCLL1-Q244-Avi-Tev-His).

B4: Polypeptide No. 149 (scFv, V domains shown)
VH: QVQLVQSGAEVKKPGASVKVSCKASGYTFTSYDINWVRQAPGQGLEWMGWMNPNSGNTGYAQKFQGRVTMTRDTSTSTVYMELSSLRSEDTAVYYCARELEGEWFDPWGQGTLVTVSS
VL: B3 VL with T31S, W32Y, V33L, A34N, A50S, S53N, S91A, F92I, I94F
notes: scFv
B4: binds (huCLL1-K244-Avi-Tev-His); binds (huCLL1-Q244-Avi-Tev-His).

B5: Polypeptide No. 150 (scFv, V domains shown)
VH: QVQLVQSGAEVKKPGASVKVSCKASGYIFTSQYIHWVRQAPGQGLEWMGWINPNSGGTNYAQKFQGRVTMTRDTSTSTVYMELSSLRSEDTAVYYCARDPWGAYGGDAFDIWGQGTMVTVSS
VL: DIQMTQSPSSLSASVGDRVTITCRASQGISNNLNWYQQKPGKAPKLLIYDASHLDTGVPSRFSGSGSGTDFTLTISSLQPEDFATYYCQQNYSPPPTFGQGTRLEIKR
notes: scFv
B5: binds (huCLL1-K244-Avi-Tev-His); binds (huCLL1-Q244-Avi-Tev-His).

B6: Polypeptide No. 151 (scFv, V domains shown)
VH: QVQLVQSGAEVKKPGASVKVSCKASGYTFTDYYIHWVRQAPGQGLEWMGWMNPNSGNTGYAQKFQGRVTMTRDTSTSTVYMELSSLRSEDTAVYYCARVDTADYMDVWGKGTLVTVSS
VL: B3 VL with S28G, T31S, V33L, A50D, S53N, S56T, F92Y, I94T
notes: scFv
B6: binds (huCLL1-K244-Avi-Tev-His); binds (huCLL1-Q244-Avi-Tev-His).

B7: Polypeptide No. 152 (scFv, V domains shown)
VH: QVQLVQSGAEVKKPGASVKVSCKASGGTFSTNAISWVRQAPGQGLEWMGWMNPNSGNTGYAQKFQGRVTMTRDTSTSTVYMELSSLRSEDTAVYYCAKEDYGGNFDYWGQGTLVTVSS
VL: B3 VL with S30G, T31P, V33L, A50D, S53N, S56A, F92H, I94L, Q100P, E105D
notes: scFv
B7: binds (huCLL1-K244-Avi-Tev-His); binds (huCLL1-Q244-Avi-Tev-His).

B8: Polypeptide No. 153 (scFv, V domains shown)
VH: QVQLVQSGAEVKKPGASVKVSCKASGGAFSSYALSWVRQAPGQGLEWMGWMNPNSGNTGYAQKFQGRVTMTRDTSTSTVYMELSSLRSEDTAVYYCAADWMIGGDAFDIWGQGTTVTVSS
VL: B3 VL with T31S, V33L, A50D, S53R, F92Y, S93G, Q100G
notes: scFv
B8: binds (huCLL1-K244-Avi-Tev-His); binds (huCLL1-Q244-Avi-Tev-His).

B9: Polypeptide No. 154 (scFv, V domains shown)
VH: QVQLVQSGAEVKKPGASVKVSCKASGGTFSSYGVTWVRQAPGQGLEWMGWINPNTGGTDYAQNFQGRVTMTRDTSTSTVYMELSSLRSEDTAVYYCAGEVGVGGYDAFDIWGQGTTVTVSS
VL: B3 VL with S28G, T31N, V33L, F92Y, Q100G
notes: scFv
B9: binds (huCLL1-K244-Avi-Tev-His); binds (huCLL1-Q244-Avi-Tev-His).

B10: Polypeptide No. 155 (scFv, V domains shown)
VH: QVQLVQSGAEVKKPGASVKVSCKASGYTFTSYDINWVRQAPGQGLEWMGWMNPSSGDSGYAQKFQGRVTMTRDTSTSTVYMELSSLRSEDTAVYYCARPERSDAFDIWGQGTTVTVSS
VL: B3 VL with S30G, T31P, V33L, A50D, S53N, Q55E, S56A, I94S, Q100G
notes: scFv
B10: binds (huCLL1-K244-Avi-Tev-His); binds (huCLL1-Q244-Avi-Tev-His).

B11: Polypeptide No. 156 (scFv, V domains shown)
VH: B6 VH with D31G, Y33F, V99G, T101Y, Y104W, M105F, V107P, K110Q
VL: B3 VL with V33L, A50D, S52F, S53T, Q55E, S56T, F92Y, I94T
notes: scFv
B11: binds (huCLL1-K244-Avi-Tev-His); binds (huCLL1-Q244-Avi-Tev-His).

B12: Polypeptide No. 177 (scFv, V domains shown)
VH: B6 VH with D31S, I34M, V99S, D100T, T101Y, A102S, Y104S, M105F, V107Y, K110Q
VL: B5 VL with G28S, N32W, N34A, H53N, D55E, N91S, P94T, P96L, R103K
notes: scFv
B12: binds (huCLL1-K244-Avi-Tev-His); binds (huCLL1-Q244-Avi-Tev-His).

B13: Polypeptide No. 157 (scFv, V domains shown)
VH: QVQLVQSGAEVKKPGASVKVSCKASGYTFSDYYIHWVRQAPGQGLEWMGIINPSGGSTSYAQKFQGRVTMTRDTSTSTVYMELSSLRSEDTAVYYCARGMTDDAFDIWGQGTMVTVSS
VL: DIQMTQSPSSLSASVGDRVTITCRASQGISSWLAWYQQKPGKAPKLLIYDASNLETGVPSRFSGSGSGTDFTLTISSLQPEDFATYYCQQTYAIPLTFGGGTKLEIKR
notes: scFv
B13: binds (huCLL1-K244-Avi-Tev-His); binds (huCLL1-Q244-Avi-Tev-His).

B14: Polypeptide No. 158 (scFv, V domains shown)
VH: QVQLVQSGAEVKKPGASVKVSCKASGDSFSSYGISWVRQAPGQGLEWMGWINPKSGATTSAQKFQGRVTMTRDTSTSTVYMELSSLRSEDTAVYYCARSTAFDAFDIWGQGTTVTVSS
VL: B13 VL with G28S, T91S, A93S, I94T, G100Q, L104V
notes: scFv
B14: binds (huCLL1-K244-Avi-Tev-His); binds (huCLL1-Q244-Avi-Tev-His).

B15: Polypeptide No. 159 (scFv, V domains shown)
VH: QVQLVQSGAEVKKPGASVKVSCKASGYSFTANYIHWVRQAPGQGLEWMGIINPSGGSTSYAQKFQGRVTMTRDTSTSTVYMELSSLRSEDTAVYYCARGNYGDYVEDWGQGTLVTVSS
VL: B13 VL with G28S, T91S, A93G, I94T, L104V
notes: scFv
B15: binds (huCLL1-K244-Avi-Tev-His); binds (huCLL1-Q244-Avi-Tev-His).

B16: Polypeptide No. 160 (scFv, V domains shown)
VH: QVQLVQSGAEVKKPGASVKVSCKASGGTFTSYDINWVRQAPGQGLEWMGWINPHSGGTNYAQKFQGRVTMTRDTSTSTVYMELSSLRSEDTAVYYCARLVGGDAFDIWGQGTMVTVSS
VL: B3 VL with T31S, V33L, S56G, S91G, F92Y, S93T, I94T, Q100P, E105D
notes: scFv
B16: binds (huCLL1-K244-Avi-Tev-His); binds (huCLL1-Q244-Avi-Tev-His).

B17: Polypeptide No. 161 (scFv, V domains shown)
VH: B4 VH with W50M, M51I, N57G, G59S, E101L, W104S, P107Y
VL: B1 VL with V25A, N34A, E50G, S53I, E55Q, I94T, P95S
notes: scFv
B17: binds (huCLL1-K244-Avi-Tev-His); binds (huCLL1-Q244-Avi-Tev-His).

B18: Polypeptide No. 162 (scFv, V domains shown)
VH: QVQLVQSGAEVKKPGASVKVSCKASGYTFTNYGISWVRQAPGQGLEWMGWINPNSGGTNFAQKFQGRVTMTRDTSTSTVYMELSSLRSEDTAVYYCARGTNGDELDYWGQGTLVTVSS
VL: not shown
notes: scFv
B18: binds (huCLL1-K244-Avi-Tev-His); binds (huCLL1-Q244-Avi-Tev-His).
